The text below walks through data of patent publication US6613506B1, “Compositions and methods for inhibiting human immunodeficiency virus infection by down-regulating human cellular genes” (Subsidiary No. 3, Inc., priority 2000, dated 2003).

First the molecules themselves.
B1: CF-42: GSE, SEQ ID NO:37, sense; squalene synthetase gene (nucleic acid, listed as Homo sapiens)
sense: TGGCTGGGACCTTTAGGAAAGTGAAATGCAGGTGAGAAGAACCTAAACATGAAAGGAAAGGGTGCCTCATCCCAGCAACCTGTCCTTGTGGGTGATGATCACTGTGCTGCTTGTGGCTCAT
modifications: chemistry not fully specified
notes: squalene synthetase gene
B2: H1C-16A3: GSE, SEQ ID NO:101, antisense; human GNB2L1 gene (nucleic acid, listed as Homo sapiens)
antisense: AGGCGGAGAGGATCATGTCCGGGAACTGCGGGGTAGTAGCGATCTGGGTTACCCAGCCGTTGTGGCCCTTGAGGGTGCCACGAAGGGTCATCTGCTCA
B3: H1C-11H9: GSE, SEQ ID NO:99, antisense; human SHIP gene (nucleic acid, listed as Homo sapiens)
antisense: GGAACTCCAGGTAGAATTTGGTCTGGGACTTGGTCTTCAATGTGGCATAGCACCTGAGAAACTCAAT
B4: CF-335: GSE, SEQ ID NO:35, antisense; protein phosphatase 2A gene (nucleic acid, listed as Homo sapiens)
antisense: GGTAAGGGTAGGGCACTTTTAATTTAAATGACTTCTTGCACCATCTTGCCTAATGGACTAGATTGGACTGTATCAACATTGATTTACTC
modifications: chemistry not fully specified
notes: protein phosphatase 2A gene
B5: H1C-23G2: GSE, SEQ ID NO:113, antisense; human CTSB gene (nucleic acid, listed as Homo sapiens)
antisense: GCCGGTGGCTCACATGGCCTGTCTGCACTGTAACCACAGGCTGGGATGTAGCCAGGACTTGGTCTCCTTGGAAGACAGGTCTGATGTTTGGCCAATCCAGTCCTTCAGACCCTGTCTGAAACTTGTA
B6: CF-622: GSE, SEQ ID NO:87, antisense; Rox gene (nucleic acid, listed as Homo sapiens)
antisense: GGAAAAAAAAAAAAACTACAAAAACCCTAATTTTGTACATACTGTATTTTTACTATTGAACTGTATTCTAGTGGCTGTTCATGCTCCAAGACTTTAGTTACCGAGACATGAATACTATCCATG
modifications: chemistry not fully specified
notes: Rox gene
B7: CF-630: GSE, SEQ ID NO:59, antisense; p40 protein gene (nucleic acid, listed as Homo sapiens)
antisense: GCTTAGAGTATGGAGAACATGGATGCAGAACACCAGACACCCCTTTCTCTCTCTTTGAAGGAATGGCTGGAACAATATATTTCCTGGCTGACCTGCTAGTCCCCACAAAAGCCAGGTTCG
modifications: chemistry not fully specified
notes: p40 protein gene
B8: CF-579: GSE, SEQ ID NO:61, sense; glucosidase alpha II gene (nucleic acid, listed as Homo sapiens)
sense: AGTTGGTATCAATGGAGTGGGAGAGGTGAGGAGATCACAAGAGGAATTTGGAGCCCAGGGTCAGCCCTCTCATCCTGCCCAAATGTTGGCAGAATCTGGGTCTTAGACTAGCATAAGTGAAGTCTGGGGAGGGCCGAAC
B9: H1C-2F9: GSE, SEQ ID NO:103, antisense; ArgRS gene (nucleic acid, listed as Homo sapiens)
antisense: ATACTTTAATTTTAAATTTTCTTCTTGTAACTGCTCCAAATTCGGAGAAGCTCCTAAACAGCCACAGTTTTTCAACCGGTCAATTTCAGCAGTCAGAGATTTAATCTCTTCTTCCTGCTGCAGCAGCCGCGCGGAGCACTCAGACATCAGTACGTCCATCCTCCCATCAGCG
B10: CF-547: GSE, SEQ ID NO:51, antisense; recepin endoprotease gene (nucleic acid, listed as Homo sapiens)
antisense: ACAGAAGGAGAGACCGAATACAAATTTGAATGGCAGAAAGGAGCCCCACGAGAAAAATATGCCAAAGATGACATGAACATCAGAGATCAGCCCTTTA
modifications: chemistry not fully specified
notes: recepin endoprotease gene
B11: H1C-6G5: GSE, SEQ ID NO:117, antisense; human glutaredoxin gene (nucleic acid, listed as Homo sapiens)
antisense: TTTAAAGGGACAGCTTCGAAGACATTTCCATCTGGTATACTTCACTAGTTAGCAATGCCCAGGAATGC
B12: H1C-37E11: GSE, SEQ ID NO:115, antisense; human cathepsin L gene (nucleic acid, listed as Homo sapiens)
antisense: GTCGACCTTCCTCTTTACCGTCCACCAGCTCACACAGTGGGGTAGCTGGCTGCTGAGGCAATTCCACAATGGTTTCTCT
B13: H1C-16E3: GSE, SEQ ID NO:111, antisense; FYN gene (nucleic acid, listed as Homo sapiens)
antisense: TTTCTCGCTTGTATTCCTGAAGATGAGTTTGGCCCTGTGACTCTGAAGGGTCGGCTATTAACTGAGACATCCTCTGTCGGGTTGCCCCCCGTGTTATATTTCGCCATGAGGGACTTTACATCTGCCTTTCCATCCTACAAACATAGGGAACAAAAAATAGCTGAGAGACA
B14: CF-287: GSE, SEQ ID NO:77, sense; Na+-D-glucose cotransport regulator gene (nucleic acid, listed as Homo sapiens)
sense: CAGGTTGTCTTTAAGATGTTCTTTTAGACAGCTGCACATTGTAGACCCTTTCACCTGCCCTACACCAAAGATGTACGATGCACTAGGAAACTGCTCATAGGATTTCTGTCAGCT
B15: CF-320: GSE, SEQ ID NO:27, sense; double-strand break DNA repair gene (nucleic acid, listed as Homo sapiens)
sense: GCCTGCACATGACGATATGGATGAGGATGATAATGTATCAATGGGTGGGCCTGATAGTCCTGATTCAGTGGATCCCGT
B16: CF-322: GSE, SEQ ID NO:31, sense; anti-proliferative factor (BTG-1) gene (nucleic acid, listed as Homo sapiens)
sense: CGACAGCTGCAGACCTTCAGCCAGAGCCTGCAGGAGCTGCTGGCAGAACATTATAAACATCACTGGTTCCCAGAAAA
B17: CF-619: GSE, SEQ ID NO:53, sense; Arg/Abl interacting protein (ArgBP2A) gene (nucleic acid, listed as Homo sapiens)
sense: GTTCCACCTCCAGTCCCGCCGCTTCGACCAAGAGATCGGTCTTCAACAGAAAAGCATGACTGGGATCCTCCAGA
modifications: chemistry not fully specified
B18: CF-624: GSE, SEQ ID NO:57, sense; p18 protein gene (nucleic acid, listed as Homo sapiens)
sense: TGTTCTGAGAACTGACTTTCTCCCCATCCCCTTCCTAAATATCCAAAGACTGTACTGGCCAGTGTCATTTTATTTTTTCCCTCCTGACAAT
modifications: chemistry not fully specified
notes: p18 protein gene

The data set relates to HIV-1IIIB. Description: Selection of GSEs from HeLa cell library using productive infection of CEM-ss cells. Format: cell-based. As for the experimental part: Additionally, a normalized RFE library made from HeLa cells was transferred into CEM-ss cells and the neo resistant population was infected with TCID50 of 3000/10^6 cells of HIV-1IIIB. This RFE library was represented by 50×10^6 independent recombinant clones. Four and seven days after infection, a purified anti-CD4 monoclonal antibody, L77 (available from Becton Dickinson), was added at 5 Φg/mL to prevent syncytia formation. Syncytia formation is thought to be prevented by blocking the interaction between gp120 expressed on the surface of an infected cell and CD4 on the surface of an uninfected cell. […] At 10-12 days after infection, CD4^+, p24^− cell population representing uninfected cells were sorted. Genomic DNA from the CD4^+, p24^− cells was purified and used for PCR amplification of inserts with the vector-derived primers. The amplified mixture was digested with EcoRI and BamHI and cloned back into the retroviral vector. The selection was repeated for additional rounds.
The selection of GSEs from HeLa cell library using productive infection of CEM-ss cells isolated […] additional nucleic acid molecules which have substantial sequence identity with other cellular genes.
The selection of GSEs from a HeLa cell library using productive infection of CEM-ss cells isolated 21 additional nucleic acid molecules which have substantial sequence identity with other cellular genes. […] The complement of SEQ ID NO:25 is represented by SEQ ID NO:26. […] The complement of SEQ ID NO:27 is represented by SEQ ID NO:28. […] The complement of SEQ ID NO:29 is represented by SEQ ID NO:30. […] The complement of SEQ ID NO:31 is represented by SEQ ID NO:32. […] The complement of SEQ ID NO:33 is represented by SEQ ID NO:34. […] The complement of SEQ ID NO:35 is represented by SEQ ID NO:36. […] The complement of SEQ ID NO:37 is represented by SEQ ID NO:38. […] The complement of SEQ ID NO:39 is represented by SEQ ID NO:40. […] The complement of SEQ ID NO:41 is represented by SEQ ID NO:42. […] The complement of SEQ ID NO:43 is represented by SEQ ID NO:44. […] The complement of SEQ ID NO:45 is represented by SEQ ID NO:46. […] The complement of SEQ ID NO:47 is represented by SEQ ID NO:48. […] The complement of SEQ ID NO:49 is represented by SEQ ID NO:50. […] The complement of SEQ ID NO:51 is represented by SEQ ID NO:52. […] The complement of SEQ ID NO:53 is represented by SEQ ID NO:54. […] The complement of SEQ ID NO:55 is represented by SEQ ID NO:56. […] The complement of SEQ ID NO:57 is represented by SEQ ID NO:58. […] The complement of SEQ ID NO:59 is represented by SEQ ID NO:60. […] The complement of SEQ ID NO:61 is represented by SEQ ID NO:62. […] The complement of SEQ ID NO:77 is represented by SEQ ID NO:78. […] The complement of SEQ ID NO:87 is represented by SEQ ID NO:88. […] The complement of SEQ ID NO:99 is represented by SEQ ID NO:100. […] The complement of SEQ ID NO:101 is represented by SEQ ID NO:102. […] The complement of SEQ ID NO:103 is represented by SEQ ID NO:104. […] The complement of SEQ ID NO:105 is represented by SEQ ID NO: 106. […] The complement of SEQ ID NO:107 is represented by SEQ ID NO:108. […] The complement of SEQ ID NO:109 is represented by SEQ ID NO:110. […] The complement of SEQ ID NO:111 is represented by SEQ ID NO:112. […] The complement of SEQ ID NO:113 is represented by SEQ ID NO:114. […] The complement of SEQ ID NO:115 is represented by SEQ ID NO:116. […] The complement of SEQ ID NO:117 is represented by SEQ ID NO:118.
As for B1, the “HIV-suppressive activity of the GSE and active orientation” value (from here on “HIV-suppressive activity”) is recorded as “interferes with HIV replication in the sense orientation”.
In the case of B2, the “HIV-suppressive activity” value is “interferes with HIV replication as an antisense molecule”.
As to B3, the “HIV-suppressive activity” value is listed as “interferes with HIV replication as an antisense molecule”.
To B4 belongs “interferes with HIV replication as an antisense molecule”; to B5, “interferes with HIV replication as an antisense molecule”; to B6, “interferes with HIV replication as an antisense molecule”.
For B7, the “HIV-suppressive activity” value is reported as “interferes with HIV replication as an antisense molecule”.
As for B8, the “HIV-suppressive activity” value is reported as “interferes with HIV replication in a sense orientation”.
To B9 belongs “interferes with HIV replication as an antisense molecule”; to B10, “interferes with HIV replication as an antisense molecule”.
To B11 belongs “interferes with HIV replication as an antisense molecule”; to B12, “interferes with HIV replication as an antisense molecule”.
To B13 belongs “interferes with HIV replication as an antisense molecule”; to B14, “interferes with HIV replication in a sense orientation”.
With B15, the “HIV-suppressive activity” value is “interferes with HIV infection in the sense orientation”.
As for B16, the “HIV-suppressive activity” value is on record as “interferes with HIV replication in the sense orientation”.
To B17 belongs “interferes with HIV replication in the sense orientation”.
The same measure for B18: “interferes with HIV replication in a sense orientation”.
